According to publication PMC11441495 (Proceedings of the National Academy of Sciences of the …, 2024):

B1: full-length human vinculin autoinhibition-disruption mutant VK3E (natural protein, UniProt P18206-2 1-1066, looked up)
chain: MPVFHTRTIESILEPVAQQISHLVIMHEEGEVDGKAIPDLTAPVAAVQAAVSNLVRVGKETVQTTEDQILKRDMPPAFIKVENACTKLVQAAQMLQSDPYSVPARDYLIDGSRGILSGTSDLLLTFDEAEVRKIIRVCKGILEYLTVAEVVETMEDLVTYTKNLGPGMTKMAKMIDERQQELTHQEHRVMLVNSMNTVKELLPVLISAMKIFVTTKNSKNQGIEEALKNRNFTVEKMSAEINEIIRVLQLTSWDEDAWASKDTEAMKRALASIDSKLNQAKGWLRDPSASPGDAGEQAIRQILDEAGKVGELCAGKERREILGTCKMLGQMTDQVADLRARGQGSSPVAMQKAQQVSQGLDVLTAKVENAARKLEAMTNSKQSIAKKIDAAQNWLADPNGGPEGEEQIRGALAEARKIAELCDDPKERDDILRSLGEISALTSKLADLRRQGKGDSPEARALAKQVATALQNLQTKTNRAVANSRPAKAAVHLEGKIEQAQRWIDNPTVDDRGVGQAAIRGLVAEGHRLANVMMGPYRQDLLAKCDRVDQLTAQLADLAARGEGESPQARALASQLQDSLKDLKARMQEAMTQEVSDVFSDTTTPIKLLAVAATAPPDAPNREEVFDERAANFENHSGKLGATAEKAAAVGTANKSTVEGIQASVKTARELTPQVVSAARILLRNPGNQAAYEHFETMKNQWIDNVEKMTGLVDEAIDTKSLLDASEEAIKKDLDKCKVAMANIQPQMLVAGATSIARRANRILLVAKREVENSEDPKFREAVKAASDELSKTISPMVMDAKAVAGNISDPGLQKSFLDSGYRILGAVAKVREAFQPQEPDFPPPPPDLEQLRLTDELAPPKPPLPEGEVPPPRPPPPEEKDEEFPEQKAGEVINQPMMMAARQLHDEARKWSSKGNDIIAAAKRMALLMAEMSRLVRGGSGTEEALIQCAKDIAKASDEVTRLAKEVAKQCTDKRIRTNLLQVCERIPTISTQLEILSTVKATMLGRTNISDEESEQATEMLVHNAQNLMQSVKETVREAEAASIKIRTDAGFTLRWVRKTPWYQ
B2: full-length human αE-catenin (natural protein, UniProt P35221 1-906, looked up)
chain: MTAVHAGNINFKWDPKSLEIRTLAVERLLEPLVTQVTTLVNTNSKGPSNKKRGRSKKAHVLAASVEQATENFLEKGDKIAKESQFLKEELVAAVEDVRKQGDLMKAAAGEFADDPCSSVKRGNMVRAARALLSAVTRLLILADMADVYKLLVQLKVVEDGILKLRNAGNEQDLGIQYKALKPEVDKLNIMAAKRQQELKDVGHRDQMAAARGILQKNVPILYTASQACLQHPDVAAYKANRDLIYKQLQQAVTGISNAAQATASDDASQHQGGGGGELAYALNNFDKQIIVDPLSFSEERFRPSLEERLESIISGAALMADSSCTRDDRRERIVAECNAVRQALQDLLSEYMGNAGRKERSDALNSAIDKMTKKTRDLRRQLRKAVMDHVSDSFLETNVPLLVLIEAAKNGNEKEVKEYAQVFREHANKLIEVANLACSISNNEEGVKLVRMSASQLEALCPQVINAALALAAKPQSKLAQENMDLFKEQWEKQVRVLTDAVDDITSIDDFLAVSENHILEDVNKCVIALQEKDVDGLDRTAGAIRGRAARVIHVVTSEMDNYEPGVYTEKVLEATKLLSNTVMPRFTEQVEAAVEALSSDPAQPMDENEFIDASRLVYDGIRDIRKAVLMIRTPEELDDSDFETEDFDVRSRTSVQTEDDQLIAGQSARAIMAQLPQEQKAKIAEQVASFQEEKSKLDAEVSKWDDSGNDIIVLAKQMCMIMMEMTDFTRGKGPLKNTSDVISAAKKIAEAGSRMDKLGRTIADHCPDSACKQDLLAYLQRIALYCHQLNICSKVKAEVQNLGGELVVSGVDSAMSLIQAAKNLMNAVVQTVKASYVASTKYQKSQGMASLNLPAVSWKMKAPEKKPLVKREKQDETQTKIKRASQKKHVNPVQALSEFKAMDSI
B3: human β-catenin (natural protein, UniProt P35222 1-781, looked up)
chain: MATQADLMELDMAMEPDRKAAVSHWQQQSYLDSGIHSGATTTAPSLSGKGNPEEEDVDTSQVLYEWEQGFSQSFTQEQVADIDGQYAMTRAQRVRAAMFPETLDEGMQIPSTQFDAAHPTNVQRLAEPSQMLKHAVVNLINYQDDAELATRAIPELTKLLNDEDQVVVNKAAVMVHQLSKKEASRHAIMRSPQMVSAIVRTMQNTNDVETARCTAGTLHNLSHHREGLLAIFKSGGIPALVKMLGSPVDSVLFYAITTLHNLLLHQEGAKMAVRLAGGLQKMVALLNKTNVKFLAITTDCLQILAYGNQESKLIILASGGPQALVNIMRTYTYEKLLWTTSRVLKVLSVCSSNKPAIVEAGGMQALGLHLTDPSQRLVQNCLWTLRNLSDAATKQEGMEGLLGTLVQLLGSDDINVVTCAAGILSNLTCNNYKNKMMVCQVGGIEALVRTVLRAGDREDITEPAICALRHLTSRHQEAEMAQNAVRLHYGLPVVVKLLHPPSHWPLIKATVGLIRNLALCPANHAPLREQGAIPRLVQLLVRAHQDTQRRTSMGGTQQQFVEGVRMEEIVEGCTGALHILARDVHNRIVIRGLNTIPLFVQLLYSPIENIQRVAAGVLCELAQDKEAAEAIEAEGATAPLTELLHSRNEGVATYAAAVLFRMSEDKPQDYKKRLSVELTSSLFRTEPMAWNETADLGLDIGAQGEPLGYRQDDPSYRSFHSGGYGQDALGMDPMMEHEMGGHHPGADYPVDGLPDLGHAQDLMDGLPPGDSNQLAWFDTDL

Tests used:
Assay in all cases: reconstitution of the complex from purified proteins
[1] = target: α-catenin–β-catenin–E-cadherin cytoplasmic tail complex (ABE complex) (human, UniProt P35221 1-906; P35222 1-781; P12830 731-882)
Sequence of α-catenin–β-catenin–E-cadherin cytoplasmic tail complex (ABE complex) (P12830 731-882, one chain of several): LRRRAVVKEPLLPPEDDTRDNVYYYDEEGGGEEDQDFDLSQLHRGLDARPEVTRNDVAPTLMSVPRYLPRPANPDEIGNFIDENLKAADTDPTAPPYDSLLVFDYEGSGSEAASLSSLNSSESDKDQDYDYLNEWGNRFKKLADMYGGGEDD

[2] = target: B1
[3] = target: B2
human β-catenin = target: B3

B1
binding result [1]: binds

B2
binding result [2]: binds

B3
binding result [3]: binds

B4: cytoplasmic domain of human E-cadherin (EcadCT, residues 731 to 882) (domain or fragment)
chain: not shown
binding result (human β-catenin): binds
